Laboratory results published in paper doi:10.1101/2020.09.12.286559 (bioRxiv, 2020).

Key:
[1] = molecular target: T1, Recombinant N-terminal His6-tagged TRF1 (human), P54274; test: AFM volume analysis; settings: remark: other sources report otherwise
T1 chain: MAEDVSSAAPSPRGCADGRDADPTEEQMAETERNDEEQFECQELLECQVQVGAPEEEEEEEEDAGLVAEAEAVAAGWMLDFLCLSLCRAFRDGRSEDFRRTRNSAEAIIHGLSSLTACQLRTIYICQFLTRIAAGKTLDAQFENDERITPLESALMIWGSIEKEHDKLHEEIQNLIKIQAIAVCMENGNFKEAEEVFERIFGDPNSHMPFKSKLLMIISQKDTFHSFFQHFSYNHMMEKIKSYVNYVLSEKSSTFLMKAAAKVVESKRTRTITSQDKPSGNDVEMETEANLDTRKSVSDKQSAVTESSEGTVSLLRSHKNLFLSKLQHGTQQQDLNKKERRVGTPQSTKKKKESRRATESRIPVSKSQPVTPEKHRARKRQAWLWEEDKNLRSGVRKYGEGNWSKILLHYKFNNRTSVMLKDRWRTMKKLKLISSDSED

[2] = molecular target: T2, N-terminal HA-tagged TIN2L (HA-TIN2L, 1-451 aa) (human, UniProt Q9BSI4-1 1-451); test: native gel or EMSA
T2 sequence: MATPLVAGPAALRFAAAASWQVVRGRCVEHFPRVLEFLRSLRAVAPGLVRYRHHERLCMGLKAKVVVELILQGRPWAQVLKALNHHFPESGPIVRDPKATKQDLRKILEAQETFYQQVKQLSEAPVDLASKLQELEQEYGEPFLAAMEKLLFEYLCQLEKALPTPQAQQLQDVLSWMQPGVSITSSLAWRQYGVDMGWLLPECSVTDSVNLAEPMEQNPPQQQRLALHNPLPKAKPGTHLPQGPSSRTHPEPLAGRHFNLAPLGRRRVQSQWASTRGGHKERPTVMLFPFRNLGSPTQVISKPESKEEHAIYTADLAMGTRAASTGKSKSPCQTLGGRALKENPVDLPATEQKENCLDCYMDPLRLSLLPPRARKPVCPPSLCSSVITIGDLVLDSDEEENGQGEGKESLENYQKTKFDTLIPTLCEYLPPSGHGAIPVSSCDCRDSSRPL

B1: Recombinant N-terminal His6-tagged TRF1 (natural protein)
chain: MAEDVSSAAPSPRGCADGRDADPTEEQMAETERNDEEQFECQELLECQVQVGAPEEEEEEEEDAGLVAEAEAVAAGWMLDFLCLSLCRAFRDGRSEDFRRTRNSAEAIIHGLSSLTACQLRTIYICQFLTRIAAGKTLDAQFENDERITPLESALMIWGSIEKEHDKLHEEIQNLIKIQAIAVCMENGNFKEAEEVFERIFGDPNSHMPFKSKLLMIISQKDTFHSFFQHFSYNHMMEKIKSYVNYVLSEKSSTFLMKAAAKVVESKRTRTITSQDKPSGNDVEMETEANLDTRKSVSDKQSAVTESSEGTVSLLRSHKNLFLSKLQHGTQQQDLNKKERRVGTPQSTKKKKESRRATESRIPVSKSQPVTPEKHRARKRQAWLWEEDKNLRSGVRKYGEGNWSKILLHYKFNNRTSVMLKDRWRTMKKLKLISSDSED
With B1 the stoichiometry N [1] was 2 and the binding result [2] was “binds”.
